Reference: article PMC5039030, “DPP9 is a novel component of the N-end rule pathway targeting the tyrosine kinase Syk” (eLife, 2016)
Values belong to the binder of their own block, whether it stands above or below them.

Legend:
[1] = target: T1, recombinant DPP9-short (His-tagged DPP9 wild type) (UniProt Q86TI2 1-863); assay: SPR; His-tagged DPP9 captured on a Ni2+ chelator chip (2500 to 3500 µRIU); peptide injected at 16 µM to 0.125 µM (Syk 1–31) or 32 µM to 1 µM (Syk 3–31); 20 mM Hepes, 150 mM NaCl, 0.005% Tween 20, 50 µM EDTA, pH 7.4; 40 µl/min; equilibrium binding analysis; conditions: both partners purified
T1 construct: DPP9, short isoform (DPP9-short); The His tag is named only for the SPR experiment; also called DPP9 wt; dipeptidylpeptidase 9

[2] = target: T2, DPP9 S730G (inactive DPP9 variant) (UniProt Q86TI2 1-863, S730G); assay: as above; conditions: both partners purified
T2 construct: DPP9 with the active-site serine mutated to glycine; Parent construct is surmised to be DPP9-short as in m1; source: recombinant
T2 sequence (Q86TI2 whole entry S730G): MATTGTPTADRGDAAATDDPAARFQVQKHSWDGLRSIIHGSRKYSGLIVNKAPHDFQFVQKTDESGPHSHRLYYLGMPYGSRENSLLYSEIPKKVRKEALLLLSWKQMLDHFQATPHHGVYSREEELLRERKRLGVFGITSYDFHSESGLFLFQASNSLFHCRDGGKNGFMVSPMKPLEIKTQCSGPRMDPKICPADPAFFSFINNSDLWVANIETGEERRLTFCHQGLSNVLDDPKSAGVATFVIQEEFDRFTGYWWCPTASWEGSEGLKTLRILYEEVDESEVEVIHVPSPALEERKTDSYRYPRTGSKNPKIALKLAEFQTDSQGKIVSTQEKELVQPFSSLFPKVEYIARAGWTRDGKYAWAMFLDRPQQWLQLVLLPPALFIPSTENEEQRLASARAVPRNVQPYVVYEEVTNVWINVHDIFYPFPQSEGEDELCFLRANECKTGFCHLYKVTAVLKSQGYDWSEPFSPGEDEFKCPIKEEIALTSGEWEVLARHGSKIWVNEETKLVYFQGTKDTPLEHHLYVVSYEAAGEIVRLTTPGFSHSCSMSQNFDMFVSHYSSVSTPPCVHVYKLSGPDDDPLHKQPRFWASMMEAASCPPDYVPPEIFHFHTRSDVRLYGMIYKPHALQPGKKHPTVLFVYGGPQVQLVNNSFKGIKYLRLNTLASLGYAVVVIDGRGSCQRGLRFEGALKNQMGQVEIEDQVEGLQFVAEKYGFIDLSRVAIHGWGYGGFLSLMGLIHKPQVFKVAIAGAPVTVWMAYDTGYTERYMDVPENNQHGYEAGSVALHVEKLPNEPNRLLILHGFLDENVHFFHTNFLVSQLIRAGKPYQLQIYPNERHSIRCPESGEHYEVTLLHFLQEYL

T1 sequence (Q86TI2 whole entry, canonical isoform): as the sequence (Q86TI2 whole entry S730G) above, with G730S counted along it

Kd [1]: 156 µM
B1: Syk△MA (3–31) peptide (peptide)
peptide: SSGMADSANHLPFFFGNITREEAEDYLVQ
notes: tyrosine kinase Syk, residues 3–31; also called Syk (3–31); source: synthetic peptide (custom-made by GenScript, >80% purity)

Kd [1]: 52 µM
Kd [2]: 284 µM
B2: synthetic Syk (1–31) peptide covering the first 31 amino acids of full-length Syk (peptide)
peptide: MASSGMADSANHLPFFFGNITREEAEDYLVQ
notes: tyrosine kinase Syk, residues 1–31; also called Syk N-terminus peptide (1–31); Syk amino terminus peptide 1–31; source: synthetic peptide (custom-made by GenScript, >80% purity)
